Measurements published in patent publication US20030087411.

Tested on: DAKAR-FLAG fusion protein (murine DAKAR residues 1 to 786 fused to FLAG)

Substance	cleavage products on SDS-PAGE / Western blot after in vitro incubation with the caspase
purified recombinant active caspase 8 (Pharmingen)	incubation of DAKAR with 100 ng caspase 8 resulted in the formation of a 22 kDa cleavage product
purified recombinant active caspase 3 (Pharmingen)	in vitro incubation of DAKAR with 100 ng caspase 3 resulted in formation of approximately 40 and 45 kDa cleavage products
